Experimental findings from patent US20170184603A1 (MORPHOTEK, published 2017) are described below.

In the assay the target is T1, purified FR-α (UniProt P15328 25-234, limits assumed).
T1 construct: also called folate receptor-alpha; alpha-folate receptor
The experiment in a line: surface plasmon resonance spectroscopy. For orientation: In SPR one partner is held on a chip, and binding of the other changes the refractive index at the surface.

T1 sequence (P15328 25-234 limits assumed): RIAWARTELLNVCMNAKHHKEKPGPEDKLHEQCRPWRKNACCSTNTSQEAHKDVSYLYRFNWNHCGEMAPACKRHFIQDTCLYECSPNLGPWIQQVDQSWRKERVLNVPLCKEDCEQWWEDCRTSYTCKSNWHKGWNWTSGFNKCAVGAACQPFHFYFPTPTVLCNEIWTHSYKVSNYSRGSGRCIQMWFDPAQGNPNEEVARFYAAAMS

B1: anti-FR-α antibody comprising a heavy chain comprising an amino acid sequence of SEQ ID NO:5 and a light chain comprising an amino acid sequence of SEQ ID NO:2 (antibody, human IgG1, kappa, V domains shown)
VH: EVQLVESGGGVVQPGRSLRLSCSASGFTFSGYGLSWVRQAPGKGLEWVAMISSGGSYTYYADSVKGRFAISRDNAKNTLFLQMDSLRPEDTGVYFCARHGDDPAWFAYWGQGTPVTVSS
VL: DIQLTQSPSSLSASVGDRVTITCSVSSSISSNNLHWYQQKPGKAPKPWIYGTSNLASGVPSRFSGSGSGTDYTFTISSLQPEDIATYYCQQWSSYPYMYTFGQGTKVEIKR
notes: also called antibody of the invention; humanized anti-FR-α antibody
For the molecule B1, the Kd (in general, the constant that tells how readily two partners part at equilibrium) amounted to 2.23 nM; the koff (as a rule, the first-order rate constant of dissociation) is ~0.000502 s⁻¹; the kon (commonly the second-order rate constant of association) was ~225000 M⁻¹ s⁻¹.
